In patent publication US20250011397A1 (HOSPITAL FOR SICK CHILDREN, published 2025):
Positions count from the first letter of the chain named.

B1: 4A8 IgG (antibody, V domains shown)
VH: EVQLVESGAEVKKPGASVKVSCKVSGYTLTELSMHWVRQAPGKGLEWMGGFDPEDGETMYAQKFQGRVTMTEDTSTDTAYMELSSLRSEDTAVYYCATSTAVAGTPDLFDYYYGMDVWGQGTTVTVSS
VL: EIVMTQSPLSSPVTLGQPASISCRSSQSLVHSDGNTYLSWLQQRPGQPPRLLIYKISNRFSGVPDRFSGSGAGTDFTLKISRVEAEDVGVYYCTQATQFPYTFGQGTKVDIK
notes: also called IgG 4A8
B2: mAb 52 (antibody, V domains shown)
VH: QVQLVQSGAEVKKPGSSVKVSCKASGYTFTSYGISWVRQAPGQGLEWMGGIIPMFGTTNYAQKFQGRVTITADKSTSTAYMELSSLRSEDTAVYYCARDRGDTIDYWGQGTLVTVSS
VL: DIQMTQSPSSLSASVGDRVTITCRASQGISNNLNWYQQKPGKAPKLLIYAASSLESGVPSRFSGSGSGTDFTLTISSLQPEDFATYYCQQGNGFPLTFGPGTKVDIKR
notes: also called IgG 52; antibody 52
B3: mAb 46 (antibody, V domains shown)
VH: EVQLLESGGGLVQPGRSLRLSCAASGFTFSSYAMSWVRQAPGKGLEWVSTIYSGGSTYYADSVKGRFTISRDNSKNTLYLQMNSLRAEDTAVYYCARGDSRDAFDIWGQGTMVTVSS
VL: DIQMTQSPSSLSASVGDRVTITCRASQSISSWLAWYQQKPGKAPKLLIYDASNLETGVPSRFSGSGSGTDFTLTISSLQPEDFATYYCQQSYSTPFTFGPGTKVDIKR
notes: also called IgG 46; antibody 46
B4: mAb 324 (antibody, V domains shown)
VH: QVQLVQSGAEVKKPGASVKVSCKASGGTFNNYGISWVRQAPGQGLEWMGWMNPNSGNTGYAQKFQGRVTMTRDTSTSTVYMELSSLRSEDTAVYYCARVGDYGDYIVSPFDLWGRGTLVTVSS
VL: B3 VL with S30T, S31T, W32Y, A34N, F96P, P100Q, D105E
notes: also called IgG 324
B5: mAb 82 (antibody, V domains shown)
VH: QVQLVQSGAEVKKPGASVKVSCKASGGSFSTSAFYWVRQAPGQGLEWMGWINPYTGGTNYAQKFQGRVTMTRDTSTSTVYMELSSLRSEDTAVYYCARSRALYGSGSYFDYWGQGTLVTVSS
VL: B3 VL with S28V, S31N, W32Y, Y92F, T94P, F96P, P100Q, K103R, V104L, D105E
notes: also called IgG 82
B6: mAb 236 (antibody, V domains shown)
VH: QVQLVQSGAEVKKPGASVKVSCKASGGTFTSYGINWVRQAPGQGLEWMGWMNPNSGNTGYAQKFQGRVTMTRDTSTSTVYMELSSLRSEDTAVYYCASRGIQLLPRGMDVWGQGTTVTVSS
VL: not shown
notes: also called IgG 236
B7: mAb 160 (antibody, V domains shown)
VH: QVQLVQSGAEVKKPGASVKVSCKASGYTFTGHDMHWVRQAPGQGLEWMGIINPSGGSTSYAQKFQGRVTMTRDTSTSTVYMELSSLRSEDTAVYYCARANSLRYYYGMDVWGQGTMVTVSS
VL: DIQMTQSPSSLSASVGDRVTITCRASQSVSSWLAWYQQKPGKAPKLLIYAASSLQSGVPSRFSGSGSGTDFTLTISSLQPEDFATYYCQQGYTTPYTFGQGTKLEIKR
notes: also called IgG 160
B8: mAb 158 (antibody, V domains shown)
VH: QVQLVQSGAEVKKPGASVKVSCKASGYTFTGYYMHWVRQAPGQGLEWMGWINPLNGGTNFAPKFQGRVTMTRDTSTSTVYMELSSLRSEDTAVYYCARDPGGSYSNDAFDIWGQGTLVTVSS
VL: B2 VL with G28S, N31R, N32Y, A50D, S53N, G91A, G93S, P100G
notes: also called IgG 158
B9: mAb 64 (antibody, V domains shown)
VH: EVQLLESGGGLVQPGGSLRLSCAASGFPFSQHGMHWVRQAPGKGLEWVSAIDRSGSYIYYADSVKGRFTISRDNSKNTLYLQMNSLRAEDTAVYYCARDTYGGKVTYFDYWGQGTLVTVSS
VL: B3 VL with S28G, W32H, S91T, F96W, P100Q, D105E
notes: also called IgG 64
B10: mAb 56 (antibody, V domains shown)
VH: QVQLVQSGAEVKKPGASVKVSCKASGYTFTSYGISWVRQAPGQGLEWMGWISAYNGNTNYAQKLQGRVTMTRDTSTSTVYMELSSLRSEDTAVYYCARDIGPIDYWGQGTLVTVSS
VL: B3 VL with S28G, W32Y, E55Q, T56S, S91A, Y92N, T94F, F96S, P100Q, D105E
notes: also called IgG 56
B11: mAb 349 (antibody, V domains shown)
VH: EVQLLESGGGLVQPGGSLRLSCAASGFTFSNYGMHWVRQAPGKGLEWVSGISSAGSITNYADSVKGRFTISRDNSKNTLYLQMNSLRAEDTAVYYCAGNHAGTTVTSEYFQHWGQGTLVTVSS
VL: B3 VL with A51T, S93T, F96W, P100Q, K103R, V104L, D105E
notes: also called IgG 349
B12: mAb 108 (antibody, V domains shown)
VH: QVQLVQSGAEVKKPGASVKVSCKASGYIFSRYAIHWVRQAPGQGLEWMGWMNPISGNTDYAPNFQGRVTMTRDTSTSTVYMELSSLRSEDTAVYYCAKDGSQLAYLVEYFQHWGQGTLVTVSS
VL: B3 VL with S28V, S30T, S31N, W32N, N53T, S93T, T94F, F96Y, P100Q, D105E
B13: mAb 120 (antibody, V domains shown)
VH: QVQLVQSGAEVKKPGASVKVSCKASGYTFTSYDINWVRQAPGQGLEWMGMIDPSGGSTSYAQKFQGRVTMTRDTSTSTVYMELSSLRSEDTAVYYCAKDFGGGTRYDYWYFDLWGRGTLVTVSS
VL: EIVMTQSPATLSVSPGERATLSCRASQSVSSRYLAWYQQKPGQAPRLLIYGASTRATGIPARFSGSGSGTEFTLTISSLQSEDFAVYYCQQYYTTPRTFGQGTRLEIKR
notes: also called IgG 120
B14: mAb 254 (antibody, V domains shown)
VH: EVQLLESGGGLVQPGGSLRLSCAASGFTFSSSAMHWVRQAPGKGLEWVSAIGTGGDTYYADSVKGRFTISRDNSKNTLYLQMNSLRAEDTAVYYCAREGDGYNFYFDYWGQGTLVTVSS
VL: DIQMTQSPSSLSASVGDRVTITCRASQGISSYLAWYQQKPGKAPKLLIYDASSLQIGVPSRFSGSGSGTDFTLTISSLQPEDFATYYCLQSYSTPPWTFGQGTKVEIKR
notes: also called IgG 254
B15: mAb 128 (antibody, V domains shown)
VH: QVQLVQSGAEVKKPGASVKVSCKASGYTFTHYYMHWVRQAPGQGLEWMGIINPSSSSASYSQKFQGRVTMTRDTSTSTVYMELSSLRSEDTAVYYCARDGRYGSGSYPFDYWGQGTLVTVSS
VL: DIQMTQSPSSLSASVGDRVTITCRASQNISRYLNWYQQKPGKAPKLLIYDASNLETGVPSRFSGSGSGTDFTLTISSLQPEDFATYYCQQANGFPPTFGQGTKLEIKR
B16: mAb 178 (antibody, V domains shown)
VH: QVQLVQSGAEVKKPGASVKVSCKASGYTFTDYHMHWVRQAPGQGLEWMGWINPNSGGTNYAQKFQGRVTMTRDTSTSTVYMELSSLRSEDTAVYYCARDISSWYEITKFDPWGQGTLVTVSS
VL: EIVMTQSPATLSVSPGERATLSCKASQSVSGTYLAWYQQKPGQAPRLLIYGASTRATGIPARFSGSGSGTEFTLTISSLQSEDFAVYYCLQTHSYPPTFGQGTKVEIKR
notes: also called IgG 178

Molecular target: T1, SARS-CoV-2 Spike, prefusion S ectodomain (BEI NR52394), His-tagged (SARS-CoV-2, UniProt P0DTC2 14-1213)
T1 construct: extracellular domain; also called S protein; S glycoprotein
Assay: BLI, His-tagged Spike on Ni-NTA biosensors, 1:1 fit

Row | Binder | Kd | koff | kon
1 | B1 | 1.42 nM | 0.000191 s⁻¹ | 133000 M⁻¹ s⁻¹

Molecular target: T2, SARS-CoV-2 receptor binding domain (RBD), wild type, His-tagged (BEI NR52309) (SARS-CoV-2, UniProt P0DTC2 319-541)
T2 construct: also called WT RBD
Assay: not given

Row | Binder | RBD binding
2 | B2 | 0.5
3 | B3 | 0.2
4 | B4 | 1.2
5 | B5 | 1.4
6 | B6 | 1.2

Molecular target: T2, SARS-CoV-2 receptor binding domain …
Assay: not given
Remark: another data set of the same source

Row | Binder | RBD binding
7 | B2 | 1.3
8 | B3 | 1.3
9 | B4 | 0.1
10 | B5 | 0.6
11 | B6 | 0.1

Molecular target: T2, SARS-CoV-2 receptor binding domain …
Assay: not given
Remark: another data set of the same source

Row | Binder | RBD binding
12 | B2 | 0.8
13 | B3 | 1.2
14 | B4 | 0.2
15 | B5 | 0.4
16 | B6 | 0.2

Molecular target: T2, SARS-CoV-2 receptor binding domain …
Assay: RBD KD column; method and antibody format not stated

Row | Binder | Kd
17 | B7 | 7.7 nM
18 | B3 | 83 nM
19 | B8 | 172 nM
20 | B9 | 97 nM
21 | B4 | 111 nM
22 | B10 | 23 nM
23 | B11 | 74 nM
24 | B5 | 206 nM
25 | B12 | 72 nM
26 | B13 | 24 nM
27 | B14 | 127 nM
28 | B15 | 57 nM
29 | B16 | 72 nM
30 | B6 | 145 nM

Molecular target: T2, SARS-CoV-2 receptor binding domain …
Assay: not given
Remark: another data set of the same source

Row | Binder | RBD binding
31 | B2 | 0.4
32 | B3 | 0.2
33 | B4 | 1
34 | B5 | 0.6
35 | B6 | 1

Molecular target: T2, SARS-CoV-2 receptor binding domain …
Assay: RBD KD column; method and antibody format not stated
Remark: another data set of the same source

Row | Binder | Kd
36 | B7 | 7.7 nM
37 | B3 | 83 nM
38 | B8 | 172 nM
39 | B9 | 97 nM
40 | B4 | 111 nM
41 | B10 | 23 nM
42 | B11 | 74 nM
43 | B5 | 206 nM
44 | B12 | 72 nM
45 | B13 | 24 nM
46 | B14 | 127 nM
47 | B15 | 57 nM
48 | B16 | 72 nM
49 | B6 | 145 nM
